doi:10.1101/2024.04.02.587704

Molecular target: ReoM-His from the ΔprkA ΔmurZ strain LMPR29 (unphosphorylated at Thr-7) (L. monocytogenes) (UniProt B8DE07)
Experiment: cross-linking + pull-down

UniProt B8DE07, sequence (B8DE07 whole entry, stated change not applied): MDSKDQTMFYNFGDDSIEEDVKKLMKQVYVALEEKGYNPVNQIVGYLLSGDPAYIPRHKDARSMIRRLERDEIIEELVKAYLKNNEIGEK

B1: MurA (L. monocytogenes UDP-N-acetylglucosamine 1-carboxyvinyltransferase) (enzyme)
chain: MEKIIVRGGKQLNGSVKMEGAKNAVLPVIAATLLASKGTSVLKNVPNLSDVFTINEVLKYLNADVSFVNDEVTVDATGEITSDAPFEYVRKMRASIVVMGPLLARTGSARVALPGGCAIGSRPVDLHLKGFEAMGAVVKIENGYIEATAEKLVGAKVYLDFPSVGATQNIMMAATLAEGTTVIENVAREPEIVDLANFLNQMGARVIGAGTEVIRIEGVKELTATEHSIIPDRIEAGTFMIAAAITGGNVLIEDAVPEHISSLIAKLEEMGVQIIEEENGIRVIGPDKLKAVDVKTMPHPGFPTDMQSQMMVIQMLSEGTSIMTETVFENRFMHVEEMRRMNADMKIEGHSVIISGPAKLQGAEVAATDLRAAAALILAGLVADGYTQVTELKYLDRGYNNFHGKLQALGADVERVDDSKVDVTNLASLF
  fold MurA copurified, against the prkA+ strain: 3 fold
